± gives the uncertainty stated by the source.

Experimental findings from the supplement of paper PMC9732359 are described below.

This data set can be described thus: protein stability index of a GFP-peptide fusion (yeast GPS) (PSI 1-4); higher = more stable; sorted into four equal gates, so the index is relative within each strain. A digest of the protocol:
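Tiled 17-residue yeast protein peptides were fused downstream of GFP in a plasmid that also expresses Cherry, and the pooled library was carried in yeast. Mid-log cultures in leucine-free medium were sorted into four equal gates by GFP/Cherry fluorescence ratio, and plasmids from each gate were PCR-amplified and Illumina-sequenced, with reads assigned to strains by barcodes. The protein stability index for each peptide was each gate's read frequency times its gate number, summed.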

Consider PTKLLVSEVAKIMQEAT [PRE8], for which the protein stability index came out at 2.63 ± 0.067 (doa10∆), 2.58 ± 0.085 (pdr5∆), 2.72 ± 0.11 (san1∆) and 2.73 ± 0.062 (ubr1∆).
On the same counts, the results for LALPVFHIGYFKATIQI [RPO31] are 1.51 ± 0.059, 1.49 ± 0.043, 1.87 ± 0.098 and 1.58 ± 0.044.
In the same order, the values of HIAHTLPEKVNFRTMQQ [SSN2] are 2.78 ± 0.079, 2.92 ± 0.072, 2.83 ± 0.083 and 2.75 ± 0.071.
In the same order, the values of AQAWINLGEYYAQIGDK [RPN7] are 2.41 ± 0.11, 2.77 ± 0.1, 2.8 ± 0.11 and 2.76 ± 0.12.
RSKGKQNRPYNHPELQG [RPC17]: the protein stability index runs as follows: (doa10∆) 2.08 ± 0.047; (pdr5∆) 2.32 ± 0.082; (san1∆) 2.03 ± 0.088; (ubr1∆) 1.94 ± 0.053.
In the same order, the values of NGTTVWGTLQSVSPQMN [SMD1] are 3.57 ± 0.25, 3.01 ± 0.24, 3.39 ± 0.19 and 2.96 ± 0.18.
In the case of VLKCLKSLESQRYVKSV [RPC34], the protein stability index is 1.72 ± 0.059 (doa10∆), 1.94 ± 0.054 (pdr5∆), 1.99 ± 0.1 (san1∆) and 1.91 ± 0.07 (ubr1∆).
On to SNLSPDLKFKRHKNKHI [DSN1], for which the protein stability index by setting is: (doa10∆) 2.71 ± 0.1; (pdr5∆) 2.58 ± 0.15; (san1∆) 2.28 ± 0.077; (ubr1∆) 2.17 ± 0.13.
On the same counts, the results for GQQTAQPQQSTIGGGLF [YGR119C/NUP57] are 2.88 ± 0.072, 3.19 ± 0.052, 2.93 ± 0.053 and 3.28 ± 0.067.
In the same order, the values of EKESDDGLLEYLEDIIG [SMC4] are 3.47 ± 0.091, 3.31 ± 0.075, 3.15 ± 0.079 and 3.54 ± 0.1.
On the same counts, the results for DELDAIGTKRFDSEKSG [RPT5] are 2.46 ± 0.066, 1.66 ± 0.058, 2.25 ± 0.086 and 1.99 ± 0.057.
LEGSVSLPRFSKPVLIV [DIS3] came in with a protein stability index (doa10∆) of 2.67 ± 0.072, a protein stability index (pdr5∆) of 2.57 ± 0.063, a protein stability index (san1∆) of 2.19 ± 0.06 and a protein stability index (ubr1∆) of 3.02 ± 0.062.
In the same order, the values of KTTITRVEPETFEIPQA [SWI3] are 2.38 ± 0.066, 2.81 ± 0.081, 2.84 ± 0.072 and 2.38 ± 0.054.
Turning to KYKQLLLKDDTYQLCVR [RPN3], the protein stability index is, setting by setting: (doa10∆) 1.46 ± 0.073; (pdr5∆) 1.78 ± 0.29; (ubr1∆) 1.6 ± 0.18.
With DLQLLYVESDEDDTQIV [IRR1], the protein stability index reads like this: (doa10∆) 3.32 ± 0.17; (pdr5∆) 3.21 ± 0.14; (san1∆) 3.07 ± 0.084; (ubr1∆) 3.16 ± 0.12.
In the same order, the values of NQYKLVFYQVTPEDADE [RPL22B] are 2.21 ± 0.1, 2.7 ± 0.082, 2.34 ± 0.059 and 2.14 ± 0.085.
With YKAKIKELENNLERLRS [YIL149C/MLP2], the protein stability index (doa10∆) is 3.22 ± 0.095, the protein stability index (pdr5∆) amounted to 1.65 ± 0.051, the protein stability index (san1∆) was found to be 2.64 ± 0.078 and the protein stability index (ubr1∆) came out at 3.11 ± 0.054.
On the same counts, the results for FETETEVTFKNANIFSS [FAS1] are 3.15 ± 0.042, 3.36 ± 0.055, 3.35 ± 0.046 and 3.35 ± 0.037.
Turning to ELSVTGSAINHHRIFDS [YMR129W/POM152], the protein stability index by setting is: (doa10∆) 3.02 ± 0.12; (pdr5∆) 3.24 ± 0.1; (san1∆) 2.91 ± 0.12; (ubr1∆) 2.93 ± 0.052.
In the same order, the values of YVNALADVLYKTAFKPH [QCR2] are 3.04 ± 0.054, 3.06 ± 0.048, 2.72 ± 0.038 and 2.81 ± 0.05.
In the same order, the values of MEDIEKIKPYVRSFSKA [LRP1] are 2.64 ± 0.062, 3 ± 0.05, 2.51 ± 0.069 and 2.74 ± 0.038.
On the same counts, the results for ITYDKQEPSASQVKDSV [SRP68] are 3.14 ± 0.046, 3.12 ± 0.062, 2.98 ± 0.053 and 2.99 ± 0.071.
On to NLIIFLYKFNGWSLVGR [YML103C/NUP188], for which the protein stability index is, setting by setting: (doa10∆) 1.59 ± 0.069; (pdr5∆) 2.22 ± 0.11; (san1∆) 2.52 ± 0.2; (ubr1∆) 2.68 ± 0.11.
On the same counts, the results for KELENNLERLRSDLQSK [YIL149C/MLP2] are 3.17 ± 0.062, 3.3 ± 0.094, 3.05 ± 0.068 and 3.2 ± 0.053.
For the sequence TNAKIPQFDSTQPKSSS [SSN3], the protein stability index is, setting by setting: (doa10∆) 3.03 ± 0.042; (pdr5∆) 3.01 ± 0.044; (san1∆) 3.09 ± 0.039; (ubr1∆) 2.98 ± 0.032.
In the same order, the values of KIDLASGKITDFIKFDA [RPS4A] are 3.26 ± 0.072, 3.21 ± 0.078, 3.13 ± 0.07 and 3.35 ± 0.082.
